The labels stand for the following.
B2: 6XHis-dGOLPH3 (natural protein, Drosophila melanogaster, UniProt Q9VQ93 1-294, looked up)
chain: MNRSDGLVRRSVKPRENGGAEGGLNANTPDDNQDALDNLKDQEDNIDDGDSKETRLTLMEEVLLLGLKDKEGYTSFWNDCISSGLRGCILIELGLRGRVMIEKSGMRRRGLCTRKLILKSDQQTGDVLLDEALKHIKETDPPETVQSWIEYLSGETWNPLKLRYQLKNVRERLAKNLVEKGVLTTEKQNFLLFDMTTHPLSDNVVKCRLVKKIQDSVLSKWVNDPQRMDKRMLALIFLAHASDVIENAFAPLNDDDYEVAMKRVRELLDLDFEAESAKPNANEILWAVFMAFTK
notes: Golgi phosphoprotein 3 (dGOLPH3), Drosophila melanogaster; source: bacterially expressed

The target in the assay “6XHis-dGOLPH3” is B2. Put plainly: pull-down; direct interaction assay: bacterially expressed 6XHis-dGOLPH3 incubated with GST or GST-tagged proteins on glutathione-Sepharose 4B beads, 1 h, 4 °C; wash 25 mM Tris-HCl pH 7.4, 150 mM NaCl, 1% NP-40, 1 mM EDTA; western blot. The following applies: both partners purified. (A western blot detects proteins with antibodies after separation by electrophoresis.)

The next assay deals with T1, GST-Lst8 (Drosophila melanogaster, UniProt Q9W328 1-313).
T1 construct: Lst8 (lethal with SEC13 protein 8), Drosophila melanogaster; full-length cDNA cloned into pGEX-6p-2; Held on glutathione beads as bait; source: E. coli ArcticExpress (DE3), purified on glutathione-Sepharose 4B beads
T1 sequence (looked up): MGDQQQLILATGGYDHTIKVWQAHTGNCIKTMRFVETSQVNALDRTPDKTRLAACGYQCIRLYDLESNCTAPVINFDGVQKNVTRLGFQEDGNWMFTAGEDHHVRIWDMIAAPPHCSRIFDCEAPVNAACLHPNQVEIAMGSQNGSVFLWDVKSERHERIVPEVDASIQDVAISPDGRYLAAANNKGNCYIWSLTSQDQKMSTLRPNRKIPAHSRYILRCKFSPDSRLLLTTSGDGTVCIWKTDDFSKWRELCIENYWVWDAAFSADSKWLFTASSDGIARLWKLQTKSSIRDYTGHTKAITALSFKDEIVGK
Described as above. The following applies: both partners purified.

B1: GST-Tctp (Drosophila Translationally controlled tumor protein) (natural protein, Drosophila melanogaster, UniProt Q9VGS2 1-172, looked up)
chain: MKIYKDIITGDEMFADTYKMKLVDDVIYEVYGKLITRQGDDIKLEGANASAEEADEGTDITSESGVDVVLNHRLTECFAFGDKKSYTLYLKDYMKKVLAKLEEKSPDQVDIFKTNMNKAMKDILGRFKELQFFTGESMDCDGMVALVEYREINGDSVPVLMFFKHGLEEEKC
notes: Translationally controlled tumor protein (Tctp), Drosophila melanogaster; full-length cDNA cloned into pGEX-6p-2; Held on glutathione beads as bait; source: E. coli BL21-Codon Plus, purified on glutathione-Sepharose 4B beads
Take B1: the binding result with 6XHis-dGOLPH3 is “binds”. Turning to B2, in the assay with GST-Lst8, the binding result is reported as “binds”.
